Assay results: the DeepSol protein solubility set

Test: soluble on expression in E. coli; label from the status in PepcDB or PDB records
For “MGSDKIHHHHHHMKRLRVTLAQLNPTLGDFEGNLKKAIEALRVAEDRGSDLLVFPELFLPGYPPEDLMLRLSFLRENRKYLQKFAQHTRNLGVTVLMGFIDSDEDAYNAAAVVKDGEILGVYRKISLPNYGVFDERRYFKPGEELLVVKIGNIKVGVTICEDIWNPVEPSASLSLGEGVHLIANLSASPYHVGKPVLRKDYLSMKAYDYHVAMAYCNMVGGQDELVFDGGSMVVDASGEVINYGKLFEEEIITVDLDLDENLRVSLVDPRRRYMKTQNYPVKTVEAGNLREKSGHFEPVVNPLPVREEEMFRALITGLRDYVRKNGFEKVVIGLSGGMDSSLVAVIATEALGKENVKGVLMPSMYTSKESIEDAQTLAKNLGIETFIIPITDVFHSYLETLKGVFAGREPDITEENLQARIRGNYLMALSNKFGWLVLTTGNKSEMATGYATLYGDMAGGFAVIKDVYKTDVYRIGRWYNSWRGKEIIPENIFVKPPTAELRPGQTDQEKLPPYEVLDEILRLYIEEGLDPEEIASKGFDRKTVLDVTEMIRKNEYKRKQAAIGVKISTRAFGKDWRMPITNRFKEPL”, the “soluble on expression in E. coli” value was “not soluble”. In the case of “MCMSLRESAAAADAGAGPLAGSARDLLAQWNGGEDVWVFAYGSLIWRPDFAWQERRLATVRGYHRSLLWSHDHRGSPDNPGLVFGLDRGGCCRGVAFRVAGRDVPEVFQALWHREMSGGAYKPRWLRCHTGQAPVRGLAFVPDRRCRHYAGALSDELLIRAVRQAVGRSGACLDYVRETHRALNEHGIVDWRLGALVDRLAQPLEHHHHHH”, the “soluble on expression in E. coli” value was “not soluble”. With “MSLEKLLPDPDPTFERPYTLCLSLDDLLIHSEWTREHGWRIAKRPGVDYFIRYLSQYYELVLFTTTPYATGEPVMRKLDPFRLILWPLYREATKFEDGEIVKDLSYLNRDLSKVIIIDTKAKHVRNQPDNAIILDPWKGDKDDKNLVNLIPFLEYIHTMQYSDVRKVIKSFDGKDIPTEGHHHHHH” the “soluble on expression in E. coli” value was “soluble”. With “MMLITTSHRPTRRTRSFGHDLERVFPNSLYLTRGKKTIQELLMEAYDRGYERLLILNVWKGNPLKMTFIKVHPEDWGYLGYLYLHGIKLQREMGFKGLNPIREDMPLVVTTAKRVGWDHIAFAQVFAELTTGKFVPRGDKSLTYIADKYDTDVIAVIERHPRGMVINFYRLDVTKDRPVGPLINVKIWIMEDGRRWDYKEALGIKVPRREKGEGQESSSENRDLEHHHHHH” the “soluble on expression in E. coli” value was “soluble”. In the case of “RKADEGKWQLVGGDIQNAIVQNICMMDDNKIACEVFGTPNGVDGRTRVCVSDASVFDFEWYEDEIYGGLIFDTFFYSPWDKLLYAKFGGIMLRSKESFITSFISPTVVQGVDVYTLAGKIRIESETPVSEVLLFDLAGRMVLRQTIDNKIYSDIDTNGLKRSGIYVVSVRLSSGQVFSHKVQV”, the “soluble on expression in E. coli” value was “not soluble”. In the case of “MSLEIPKDFFVKDGEPNVKIVVGSEGAAMDVVSAADIAAAIGSLLYTEKEVKVSDVSVVVRKDITYDPDDIPVFNNFYPNKNQVFIVGQDSLKDVEAWWNGSAFSANYTASVWNGGTYSGTYSLELENVANYGKYDLTGELTLKGITLEEIANNEVNFKDIEDFKDMTVKINSAVLNITLAVYNWTKTVKAKDPITGVTTTKVKWTLSNVQPGAGYSISDTISKGVGEGVTLKVFDKEFPIMFVGKAISKNAIVDAADSFVYGTYHGTDFYDQGQEVEFDGYKVEILDIDIQRNEGHHHHHH”, the “soluble on expression in E. coli” value was “not soluble”. In the case of “MPHIAHRKNGTYDQSGFNCSLFCSFVQKQGCRTMIQLTTPVENPVIRERLISYANKLFFVGSCFSLEVGSYMRQAGFRTEINPFGIMYNPLSIAGCIGRLLDPVPYQAEELFEYDGLFHSFDHHGAFSHAKKEETLQHLNDSLHVGHEALLRSDRLFFTWGTAFVYNYVSANKVVANCHKLPERLFRRQMVGIDDLLAVWIPLIERLLSSSPDRRIILTVSPVRHLRDGAVGNQQSKATLVLFCKALTGRFPEHLYYFPAYEIMMDELRDYRYYADDMTHPSSLAVSIIRERFADIFVEKDHREAMDACLKLRRRMAHRPLHPDSPDAMLFEAQTQTLVSALLRKYPDLVLDDIAGEMES”, the “soluble on expression in E. coli” value was “not soluble”. For “MSLYLEKYYYEKNIQEEFFKFLYSMTGKKEEIVVICIGDPVFEGNILAPLVGTLLHERNIPNVYGTLKEPVYEINIKEIYNKILKKYDNPYIILVASSFPVDFHDEREVIVLKNDPYEIQTASGSLKLGNASFIVVFDLEDSYCKVNFIEKLGIRKIYKYSEAIFKTLYYILHNKNYVKEGHHHHHH”, the “soluble on expression in E. coli” value was “soluble”. For “MVVIANAHNELIHDAVLDYYGKRLATCSSDKTIKIFEVEGETHKLIDTLTGHEGPVWRVDWAHPKFGTILASCSYDGKVLIWKEENGRWSQIAVHAVHSASVNSVQWAPHEYGPLLLVASSDGKVSVVEFKENGTTSPIIIDAHAIGVNSASWAPATIEEDGEHNGTKESRKFVTGGADNLVKIWKYNSDAQTYVLESTLEGHSDWVRDVAWSPTVLLRSYLASVSQDRTCIIWTQDNEQGPWKKTLLKEEKFPDVLWRASWSLSGNVLALSGGDNKVTLWKENLEGKWEPAGEVHQGGGGSGGGGATSKEFDGPCQNEIDLLFSECNDEIDNAKLIMKERRFTASYTFAKFSTGSMLLTKDIVGKSGVSIKRLPTELQRKFLFDDVYLDKEIEKVTIEARKSNPYPQISESSLLFKDALDYMEKTSSDYNLWKLSSILFDPVSYPYKTDNDQVKMALLKKERHCRLTSWIVSQIGPEIEEKIRNSSNEIEQIFLYLLLNDVVRASKLAIESKNGHLSVLISYLGSNDPRIRDLAELQLQKWSTGGCSIDKNISKIYKLLSGSPFEGLFSLKELESEFSWLCLLNLTLCYGQIDEYSLESLVQSHLDKFSLPYDDPIGVIFQLYAANENTEKLYKEVRQRTNALDVQFCWYLIQTLRFNGTRVFSKETSDEATFAFAAQLEFAQLHGHSLFVSCFLNDDKAAEDTIKRLVMREITLLRASTNDHILNRLKIPSQLIFNAQALKDRYEGNYLSE”, the “soluble on expression in E. coli” value was “soluble”. In the case of “MAQLYFYYSAMNAGKSTALLQSSYNYQERGMRTVVYTAEIDDRFGAGKVSSRIGLSSPAKLFNQNTSLFEEIRAESARQTIHCVLVDESQFLTRQQVYQLSEVVDKLDIPVLCYGLRTDFRGELFVGSQYLLAWSDKLVELKTICFCGRKASMVLRLDQDGRPYNEGEQVVIGGNERYVSVCRKHYKDALEEGSLTAIQERHRHILEHHHHHH”, the “soluble on expression in E. coli” value was “soluble”. For “ALQNKEEEKKKVKKLQKSYFDVLGICCTSEVPIIENILKSLDGVKEYSVIVPSRTVIVVHDSLLISPFQIAKALNEARLEANVRVNGETSFKNKW”, the “soluble on expression in E. coli” value was “soluble”. With “MGSDKIHHHHHHFDEETAFQSPTLVYVNTVASLYNNMFKIMGNDRHVYDLNTFSSDEAMLPCRIGDWEDGGLWQNIFLHRWGTMNDLTKNSWDFLYEQIGKCNQSVDKLQAFAEEQPDVEYFKVYLEEVRAVRAFFYYELLDLFARVPLVTSSTTPMSEVKQSERSVVFNFVRSELEEALPYLSDNRSNQKGEYYGRITKPVAYMILAKLALNAEVYADDNWTDGNRPAGKNIKFTVDGKEMNAWEATIAYVDKLEALGYKLQGNFSENFAVANETSVENIFTVPMDPVAYPDAKDYNLVRTRHYDHATAYGQSGWNGSCATVKAMNVFKFGTADEDPRCKLTYFTGEVTGPDGKTIYTEWDGQKVPLKYEPNAPKVYMDASDGLLVKTAGARMAKYEFDQNAQDGGNLHGNDCVIFRFADALLMKAEAKIRLGQNGDDEVNQVRNRVGAKPLQNVTLDTLLDERMLELAWEGVRRQDLIRFGKFTEATVDRYVGVKHFASSLDYQEDKTGYTTVFSIYADILSLNPNLTQNPGY” the “soluble on expression in E. coli” value was “not soluble”. With “MDTWKVGPVELKSRLILGSGKYEDFGVMREAIAAAKAEVVTVSVRRVELKAPGHVGLLEALEGVRLLPNTAGARTAEEAVRLARLGRLLTGERWVKLEVIPDPTYLLPDPLETLKAAERLIEEDFLVLPYMGPDLVLAKRLAALGTATVMPLAAPIGSGWGVRTRALLELFAREKASLPPVVVDAGLGLPSHAAEVMELGLDAVLVNTAIAEAQDPPAMAEAFRLAVEAGRKAYLAGPMRPREAASPSSPVEGVPFTPTGPRPGRGPQ” the “soluble on expression in E. coli” value was “soluble”. In the case of “MKYKRVLLKLSGEFLTRNGFGIEPEATQALAREIKAAYDTGVQLAIVIGAGNLWRGARQGVGMDRATADYIGMLATIMNALALQDALESLGVPTRVQTALTITQVAEPYIRRRALRHLEKERIVIFGGGTGNPFFSTDTAAALRALEVGAEVVLMAKNKVDGVYSDDPRKNPEAVRFDELTYLEVLNRGLQVMDTTAITLCMEAGLPIVVFDIFKPGALVGIIQGEKVGTLIH”, the “soluble on expression in E. coli” value was “soluble”. For “MFKFHLITKDGKARRGRIYTPHGVIETPVFMPVGTQGTVKAMLHKLLDEIGTQIILGNTYHLYLRPGTEIIKKAGGLHRFISWNKPILTDSGGYQVFSLAKGKFGNRKAKVKVSDEGVEFQDHLQGDKHFFTPEKVVEIQEIFGSDIMMPLDECVEYPVDKNYAEKALKRTINWLERSIKAKKREDQVLFGIVQGAFWKDLRKKAVEETLKFDEFLFGYSIGGLSVGEPKEIMYGMTEVVCELLPEKKPRYLMGVGKPEDILEAVERGVDMFDCVVPTRNARTGTLYTSQGVVDIRHSKWKEDFSPLDPECDCYTCRNFSKAYLRHLFVAEEISAYVLNTIHNLRFYLKMMEEVRKAIEEKRFKELKEKYLQRVKNKL”, the “soluble on expression in E. coli” value was “soluble”. With “MNNETTTLISLKEAMKRVDHKLQALETQFKELDFTKDNLMQKFEHHSKALASQAAQDEMWTAVRALQLTSMELNILYSYVIEVLICLHTRVLEKLPDLVRGLPTLASVLRRKVKNKRVRVVWESILEECGLQEGDITALCTFFIARGNKAEHYTAKVRQMYIRDVTFLITNMVKNQALQDSLLRAVQVIEKGKAVRTPEKQKSSLEELIPSVKN” the “soluble on expression in E. coli” value was “soluble”. For “MGSDKIHHHHHHMASPEYEEYPSADGVMDDATLKDAEIRDWNWAVLPKGSVSTRFAAPSGSLAMVAMGKPQNPRVVLVPGATGSKEDFAVMMPELAEAGFYVLSYDLAGQYESAGAGPENLVPPRRHYDYELFVNDFVAVLESGGVPAHVVGYSFAAIVAQIAYSKRPELFRSFTLLSCPPLTGQCFRGISRFGRFTGLANGRVGAALMIWGIRRNVNKVSPNRLRFVRNRFRFTRRQSVRDIYGLMKNVPDLREHLAAATVPKFVAVGEHDLWPLHLHRQFAQSIGARISVYRGGHSPSETSPHQFGRDLLAMYAEGG”, the “soluble on expression in E. coli” value was “not soluble”. In the case of “MQQSYNPQNSLTATTSYSEQEIVCICESLFNEGLQTGRTEQLANFIYNLPQCYQVMESVLKAQALVYFTTQNWKMLYKLLECSKFSPHNHTVLQNLWLDAHYKEAAKTKDRELGAVCKYRIRKKNPFPNTIWDGEETNYCFKSKSRNVLRDAYKKCQYPSVEDKRRLAQQTELSIIQVSNWFKNKRQRERAAGQLDRSSARSNDSDDGSSGCESKPPMNIDSPAPPPLPTSFDLQPYYPSPYTFAPHCDFSYIQNL”, the “soluble on expression in E. coli” value was “not soluble”. For “MGHHHHHHMPEINTNHLDKQQVQLLAEMCILIDENDNKIGAETKKNCHLNENIEKGLLHRAFSVFLFNTENKLLLQQRSDAKITFPGCFTNTCCSHPLSNPAELEESDALGVRRAAQRRLKAELGIPLEEVPPEEINYLTRIHYKAQSDGIWGEHEIDYILLVRMNVTLNPDPNEIKSYCYVSKEELKELLKKAASGEIKITPWFKIIAATFLFKWWDNLNHLNQFVDHEKIYRM”, the “soluble on expression in E. coli” value was “soluble”. In the case of “MGSDKIHHHHHHMSRKSNAFSGSAAGLQHPDGRNDSGQKQQMSSPAALLQSDTLGSRLTSRGDLTSFFMELTAEIGADSYMLVAIVHDQDRNDARIVSSNWIFDAIELIGKRLIASLAQGALTVAPGIRPRPLVAARAPDADGLVSGEEARLLDVLGHAEIYSLRLNVGRQRLFALFSAATSGQIDQPALMKAQLKCCYALSHIPQLIAAAAMQDPLSDRERECLFWVSEGKTTDEVAVILGVSSNTVNSYITHAIQKFAASNRAMAIATAIRSGII”, the “soluble on expression in E. coli” value was “not soluble”. For “MKSMPTISRIQRIKEYLSKRKLSQRRKVGVLVDGPNMLRKEFNINLKEIREILSEYGDIKIAKVFLNQYATEKLVEAIENQGFEPIVTSGDVDVRMAVEAMELIYNDSIDAVALVTRDADFKAVLMKAMEMGKETIIIGAEPGFSTALKNSADIAIVLNEDEEKEKGDADEEEIIEV”, the “soluble on expression in E. coli” value was “not soluble”.
